We go through four molecules from publication PMC6940986, “Structural Insights into the Intracellular Region of the Human Magnesium Transport Mediator CNNM4” (International Journal of Molecular Sciences, 2019).

B1: CNNM4_(cNMP) (human CNNM4 cyclic nucleotide monophosphate binding-like domain, residues 545-730) (domain or fragment, UniProt Q6P4Q7 545-730, looked up)
chain: KISPQLLLAAHRFLATEVSQFSPSLISEKILLRLLKYPDVIQELKFDEHNKYYARHYLYTRNKPADYFILILQGKVEVEAGKENMKFETGAFSYYGTMALTSVPSDRSPAHPTPLSRSASLSYPDRTDVSTAATLAGSSNQFGSSVLGQYISDFSVRALVDLQYIKITRQQYQNGLLASRMENSPQ
modifications: SeMet labeled in the crystals
notes: CNNM4, human, UniProtKB/Swiss-Prot Q6P4Q7, residues 545-730 (cNMP domain only, without the C-terminal tail); Cloned into pHIS-Parallel2; In solution a concentration dependent mixture of monomers and dimers; also called hCNNM4_(cNMP); CNNM4_(545-730); source: E. coli BL21 (DE3), purified (HisTrap, TEV, second Ni-NTA, Superdex 75); SeMet derivative from E. coli B834 (DE3) for the crystals; not …
B2: CNNM4_(BAT-cNMP-Ctail) (complete intracellular region of human CNNM4, residues 356-775) (domain or fragment, UniProt Q6P4Q7 356-775, looked up)
chain: KEELNMIQGALELRTKTVEDIMTQLQDCFMIRSDAILDFNTMSEIMESGYTRIPVFEDEQSNIVDILYVKDLAFVDPDDCTPLKTITRFYNHPVHFVFHDTKLDAMLEEFKKGKSHLAIVQKVNNEGEGDPFYEVLGLVTLEDVIEEIIKSEILDESDMYTDNRSRKRVSEKNKRDFSAFKDADNELKVKISPQLLLAAHRFLATEVSQFSPSLISEKILLRLLKYPDVIQELKFDEHNKYYARHYLYTRNKPADYFILILQGKVEVEAGKENMKFETGAFSYYGTMALTSVPSDRSPAHPTPLSRSASLSYPDRTDVSTAATLAGSSNQFGSSVLGQYISDFSVRALVDLQYIKITRQQYQNGLLASRMENSPQFPIDGCTTHMENLAEKSELPVVDETTTLLNERNSLLHKASHENAI
notes: CNNM4, human, UniProtKB/Swiss-Prot Q6P4Q7, residues 356-775 (Bateman module, linker, cNMP domain and C-terminal tail); Cloned into pHIS-Parallel2; also called hCNNM4_(BAT-cNMP-Ctail); full intracellular region; source: E. coli BL21 (DE3), purified (HisTrap, TEV, second Ni-NTA, Superdex 75); not shown: His6, N-terminal, cleaved
B3: CNNM4_(BAT-cNMP-Ctail) F631A mutant (domain or fragment, human, UniProt Q6P4Q7 356-775, looked up)
chain: B2 chain with F276A
notes: CNNM4, human, UniProtKB/Swiss-Prot Q6P4Q7, residues 356-775 with F631A; also called F631A mutant of CNNM4_(BAT-cNMP-Ctail)
B4: PRL-1 (phosphatase of regenerating liver 1) (enzyme)
chain: MARMNRPAPVEVTYKNMRFLITHNPTNATLNKFIEELKKYGVTTIVRVCEATYDTTLVEKEGIHVLDWPFDDGAPPSNQIVDDWLSLVKIKFREEPGCCIAVHCVAGLGRAPVLVALALIEGGMKYEDAVQFIRQKRRGAFNSKQLLYLEKYRPKMRLRFKDSNGHRNNCCIQ
notes: PRL-1, phosphatase of the regenerating liver; The methods give no source or construct for PRL-1

Series [1] deals with the molecule itself. Put plainly: SEC-MALS; Superdex 200 10/300 GL, 25 C, 20 mM HEPES pH 7.4, 200 mM NaCl, 1 mM TCEP; 100 uL injected at 1 and 10 g/L; monomer to dimer.
Series [2] deals with B2. As to the kind of experiment: SEC-SAXS; KW-403 size-exclusion column online, 20 C, 20 mM HEPES pH 7.4, 200 mM NaCl, 1 mM DTT; samples about 5 mg/mL; CNNM4_(BAT-cNMP-Ctail) and its complex with PRL-1 each without and with 5 mM MgATP; oligomeric state from Porod volume, Rg, Dmax. The note with it: both partners purified.

Substitutions are numbered along the chain they refer to. Names and notes keep the numbering of the source.

As to B1, the stoichiometry N (as a rule, the number of molecules, sites or subunits per partner or assembly) in series [1] was found to be 2. On the same count and under the same terms, under B2 stands 2. For B3, the binding result in series [1] is given as “binds”.

Consider B4, for which the “stoichiometry N” value in series [2] was 2 PRL-1 molecules per CNNM4_(BAT-cNMP-Ctail) dimer.
